± gives the uncertainty stated by the source.
Assay: amyloid nucleation score (Sup35N fusion, yeast selection) (log enrichment); library NNK3; higher = more nucleation; inactive = no reads after selection
Method in brief: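 Libraries of peptides of 20 random codons fused to Sup35N were expressed in psi-negative yeast and induced 24 hours with 100 μM copper sulfate. Selection was 7 days at 30°C on medium lacking adenine and uracil, and plasmid inserts were Illumina-sequenced before and after selection. Nucleation score is the DiMSum log enrichment of output over input reads, centred on the mode score of non-aggregating sequences, and sequences with under 100 input reads were left out.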

Substance | amyloid nucleation score
IRRLSSVCMGCSWYL | inactive
IRRSLAR | inactive
IRSILW | inactive
IRSPWTSRAVCGGADV | inactive
IRSYAF | inactive
IRTNAGSLYFYWGTLFRISH | inactive
IRTTSPHHDSLSNEGVIDML | inactive
IRVTRIRAKVTLTTNVMWVP | 0.463 ± 0.29
IRYLYLV | inactive
ISCALHYDSVRKRYVVSGQL | inactive
ISDRFQAESCSRCSLVSSMF | inactive
ISEVESWPFHCGYGNI | 0.467 ± 0.28
ISILDLSSTF | inactive
ISINYVPDMFDLRDYFTVIL | inactive
ISIPLLIMLPELGTASMVNG | inactive
ISKSHGYLYSNWKTCFSELS | inactive
ISLYNRNIYCRLTFMLRVIR | inactive
ISMHPERQVMMRLPCRMCCL | inactive
ISMSNHWLLLVICNDEWDLP | -0.06 ± 0.7
ISPAESFPSSPERIHIVD | -0.789 ± 0.9
ISRLLPPWNNRHIFSFVYLS | inactive
ISRNRQRSVIPGTTKLCMWV | inactive
ISRSGNLLGYKDLLVATKSG | inactive

Substance | amyloid nucleation score
ISSAYPRNICRVCGPRTR | inactive
ISTFVLNDAMLRRWET | inactive
ISVIYLS | inactive
ISYTTSNYITLVYKLTNRAY | 0.911 ± 0.13
ITGFLFRVVW | 0.829 ± 0.13
ITILT | inactive
ITLGACS | inactive
ITLLCLFNATL | 1.98 ± 0.085
ITSVTLITNKSKSGIGKVGS | inactive
ITWSFTVDMDALCCGPWNVR | 3.18 ± 0.078
ITWTRGDVGQTHNSAMLSHT | inactive
ITYSMLVVVQNLA | 1.75 ± 0.1
IVADAAWNAIGVSGMDSTGT | inactive
IVALQRSFSNNT | inactive
IVFWRSFHKNA | inactive
IVGDGDGQTCCVSRSLCGMV | inactive
IVGIKVDIYNTSGCS | 1.7 ± 0.12
IVGLDWKNATVRDCRRNFIN | inactive
IVHNYFSFCHYNRGRVGLFI | 2.64 ± 0.074
IVKCLYVVCV | inactive
IVKVLFNSFGGWWYAHGLYV | inactive
IVLSNVRVGIACGDLC | 0.182 ± 0.44
IVLTFYIYRNSYCSAV | 0.89 ± 0.092

Substance | amyloid nucleation score
IVNRIVVSSRRFSLVHWGWA | 1.73 ± 0.11
IVQLHDIVDS | -0.168 ± 0.9
IVRSF | inactive
IVSALQFAEAKL | inactive
IVSKW | inactive
IVVFLDLFRDTFGLGLPTKG | inactive
IWASRS | inactive
IWETVRIFCFINHAINCGVP | 2.35 ± 0.079
IWKLHITLLSYRSILHVLHM | inactive
IWQCRYLRMGQ | inactive
IWTTPHVCPNLMMSARGCRL | inactive
IWYGLDIWRPLCIGAPMVKD | inactive
IYCFRGNHFDCLGAGNMLQV | inactive
IYCWCSVIDTGRAARLRVIK | inactive
IYDCFVTGSFLRK | inactive
IYGWGRRFRTRR | inactive
IYHSYNESVCTYSNHPSRM | inactive
IYIAKLHEFSIRYVLPVWYI | inactive
IYNNSYKFCILLVTWTIEVQ | inactive
IYSTVSYQGTVWRKYWQMNG | inactive
IYTARIVTFCTFFRRY | inactive
IYVGKRNSCRPSSEDSVGNR | 0.402 ± 0.38
IYYFSLSMVLRCSEWTLYVY | inactive

Substance | amyloid nucleation score
KAARTSQGNARCVYVKGVSN | inactive
KAHRYVWVPSMPSNMNSHRR | inactive
KAIDFADDELRPIYMTFRVQ | inactive
KALGAEYNTHGTVSGCSLCK | inactive
KALSCSRSFAVKVVYTQDP | inactive
KALSSDPTICFRRAFIVHCK | inactive
KAPNPI | inactive
KAQEHPA | inactive
KARWYFIVLNVVTHSWDSKV | inactive
KCAVDTV | inactive
KCDDIGCLGQAT | inactive
KCKFNWVCEVVR | inactive
KCLGFHKHGALFTAYWGQTS | inactive
KCLLGLSLVRAKRSKLWMW | inactive
KCMFSIFSGAASVLLKMFMV | inactive
KCSFTVNYRRRYSLYC | inactive
KCSTMGWRWYMSS | -0.106 ± 0.93
KDCQKNGWLSSTNLELLQCP | inactive
KDFGRLLLN | inactive
KDGFYNVPLVEPHMRSSSTP | inactive
KDLCPFARPASRLHRVACME | inactive
KDLQR | inactive
KDQSRSARSST | inactive

Substance | amyloid nucleation score
KDVSPVCNVPMSGWWTTAFL | inactive
KDYLLSSYCEECHDHSSSEL | inactive
KEGDFPLSSSRYSYTNYLVI | inactive
KENFASVCCGCYPMQPPGIM | inactive
KFARV | inactive
KFFCW | inactive
KFGFCDIMKGLFRRMLGLKV | -1.06 ± 1.3
KFGSLVKTYFRDMFRSILCW | inactive
KFIGFYVWVYVCHCVVIRAY | inactive
KFLISFRRSY | 2.07 ± 0.076
KFLYRCINRLANSLIRELPI | inactive
KFRKTRSKR | inactive
KFYLILVA | inactive
KGCNETWFVNPRGRYCWEFC | inactive
KGDCQWVVPYVIHSNHVRAG | inactive
KGLYV | inactive
KGTPGLDFTAADPGVIAL | inactive
KIHCAESATVVLWVRVGDCR | inactive
KISAIVSYPAYVIIVHRLWH | inactive
KITIKFYRCTS | inactive
KIVLDRARDWQL | 0.094 ± 0.41
KKLHALESCA | inactive
KKMLEKKI | inactive

Substance | amyloid nucleation score
KKRGHEWFVIIKSARGASKR | inactive
KKYVETVSS | inactive
KLCTVSNRSVMPGIT | inactive
KLCYTASEWSGNSLNVVRNK | inactive
KLDTVYRPSMRACVCNREFV | -0.515 ± 1.1
KLFYQMILYRNG | inactive
KLLLYFKYLMPVELISWSTL | inactive
KLLRQNSY | inactive
KLMEICYRVRIRRMECQVNW | 0.753 ± 0.12
KLNFVGLVLRNVGSWEGHGC | inactive
KLSDDRKTRCNYYFMGLVVV | inactive
KLTGQDLVVGNAFATVVYVE | inactive
KLVWRERICEDGFYIKTTFL | inactive
KMCLLFVREFRMLFACVWVT | inactive
KMFSLWFQ | 1.69 ± 0.12
KMMARTSNVVEVLCWRTDVA | 0.015 ± 0.64
KMQISTKVCDMDLFCPKTIP | inactive
KMSAPWEGQCECCGCDF | inactive
KMSNGDTNDANVFIVRDSWL | inactive
KNGFRNVRKQRGAQKE | inactive
KNNGTSKGVCRLQIMLFGLA | inactive
KNQMVFVINY | 2.68 ± 0.053
KPCHLYMTAEDTYVWMSVGL | inactive

Substance | amyloid nucleation score
KPDVY | inactive
KPLMWESSDNPEGWQLSLLG | -0.79 ± 1.4
KPLVV | inactive
KPPQNILVDMRLEGSMC | inactive
KPWIFMESRDM | inactive
KQFRVWFCYFL | 0.565 ± 0.14
KQPCCNVFCC | 2.42 ± 0.069
KQVNQSRLMISGGNCRGRAN | inactive
KQVNSCDFLMWMLLALHFKG | inactive
KRCWLWWIKVCTKMLLEVSS | inactive
KRDHMVSLGYSLGSKQRGVG | inactive
KRFHWFGVGVDAVMRFGV | inactive
KRKRVK | inactive
KRLFIILIWKFCTGLCFL | inactive
KRPWTVFFVFFIGFATLL | 1.15 ± 0.1
KRVCCCKNSSSCE | inactive
KRVKWNCRGLDDSMLFFWVV | inactive
KRVSTDAW | inactive
KRYCSLMML | inactive
KRYVCSTVTMLNCQVR | inactive
KSALTRPDARPVRYRQPTHS | inactive
KSAREFGAHFMSTITVACTR | inactive
KSCLCLSPRGFGTDSAAVKW | 0.966 ± 0.12

Source: the supplement of paper PMC12042874
